Assay results published in the supplement of paper PMC9112550, “Optimization of the antimicrobial peptide Bac7 by deep mutational scanning” (BMC Biology, 2022).

The sequences below were run on Escherichia coli TOP10 (assay: shrunken log2 fold change of peptide-encoding DNA abundance (4.5 h post-induction vs induction); higher = less antimicrobial activity (less host growth inhibition)). Conditions: time post-induction: 4.5 h; library: site-saturation at positions 5, 18, 19, 20.
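Also: peptides expressed intracellularly from a pBAD plasmid library in pooled LB shake-flask culture, induced with 0.3% L-arabinose, DNA abundance read by NGS, three biological replicates, DESeq2 with apeglm shrinkage.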

Sequence	shrunken log2 fold change
RRIRQRPPRLPRPRPRPHENPRP	-0.0313
RRIRYRPPRLPRPRPRPWMSPRP	-0.0725
RRIRVRPPRLPRPRPRPDMMPRP	0.0644
RRIRKRPPRLPRPRPRPSDFPRP	-0.00266
RRIRDRPPRLPRPRPRPNIIPRP	-0.117
RRIRDRPPRLPRPRPRPCVAPRP	0.633
RRIRVRPPRLPRPRPRPRVGPRP	0.655
RRIRDRPPRLPRPRPRPSLVPRP	-0.0908
RRIRFRPPRLPRPRPRPMQCPRP	0.188
RRIRSRPPRLPRPRPRPARWPRP	0.224
RRIRVRPPRLPRPRPRPPWIPRP	0.218
RRIRCRPPRLPRPRPRPKCMPRP	-0.483
RRIRKRPPRLPRPRPRPRQKPRP	-0.0264
RRIRFRPPRLPRPRPRPQIKPRP	-0.291
RRIRHRPPRLPRPRPRPIYIPRP	-0.156
RRIRRRPPRLPRPRPRPDTDPRP	-0.108
RRIRVRPPRLPRPRPRPCFIPRP	-0.599
RRIRRRPPRLPRPRPRPNFCPRP	0.171
RRIRQRPPRLPRPRPRPPQVPRP	1.3
RRIRLRPPRLPRPRPRPWNSPRP	-0.018
RRIRERPPRLPRPRPRPNFNPRP	-0.376

Sequence	shrunken log2 fold change
RRIRIRPPRLPRPRPRPVHFPRP	-0.355
RRIRVRPPRLPRPRPRPIRFPRP	-0.0571
RRIRCRPPRLPRPRPRPHYWPRP	-0.783
RRIRSRPPRLPRPRPRPWTCPRP	0.00516
RRIRHRPPRLPRPRPRPSHQPRP	-0.178
RRIRGRPPRLPRPRPRPPSFPRP	0.653
RRIRFRPPRLPRPRPRPDFVPRP	-0.0292
RRIRKRPPRLPRPRPRPQVIPRP	0.108
RRIRQRPPRLPRPRPRPVTLPRP	-0.153
RRIRHRPPRLPRPRPRPTDWPRP	0.223
RRIRWRPPRLPRPRPRPSREPRP	0.807
RRIRMRPPRLPRPRPRPRKVPRP	0.767
RRIRQRPPRLPRPRPRPATAPRP	0.115
RRIRFRPPRLPRPRPRPQNPPRP	-0.231
RRIRKRPPRLPRPRPRPDCWPRP	0.825
RRIRYRPPRLPRPRPRPKQHPRP	-0.304
RRIRLRPPRLPRPRPRPSMGPRP	0.0483
RRIRYRPPRLPRPRPRPMFQPRP	-0.136
RRIRYRPPRLPRPRPRPICWPRP	0.142
RRIRPRPPRLPRPRPRPGKWPRP	0.118
RRIRDRPPRLPRPRPRPKTSPRP	0.0412

Sequence	shrunken log2 fold change
RRIRQRPPRLPRPRPRPRCWPRP	0.257
RRIRFRPPRLPRPRPRPNMIPRP	-0.495
RRIRDRPPRLPRPRPRPRILPRP	-0.116
RRIRPRPPRLPRPRPRPIYFPRP	-0.205
RRIRQRPPRLPRPRPRPAKRPRP	0.0228
RRIRERPPRLPRPRPRPLKQPRP	-0.121
RRIRCRPPRLPRPRPRPMDHPRP	-0.904
RRIRQRPPRLPRPRPRPKQNPRP	-0.0189
RRIRGRPPRLPRPRPRPVSQPRP	0.795
RRIRPRPPRLPRPRPRPIQYPRP	-0.642
RRIRARPPRLPRPRPRPRITPRP	0.173
RRIRFRPPRLPRPRPRPQEIPRP	-0.0426
RRIRMRPPRLPRPRPRPCPAPRP	0.574
RRIRCRPPRLPRPRPRPNGQPRP	-0.0579
RRIRPRPPRLPRPRPRPDPPPRP	0.249
RRIRLRPPRLPRPRPRPYNEPRP	-0.78
RRIRYRPPRLPRPRPRPKRSPRP	-0.113
RRIRNRPPRLPRPRPRPICQPRP	-0.0999
RRIRPRPPRLPRPRPRPVLEPRP	-0.147
RRIRTRPPRLPRPRPRPVAGPRP	-0.0116
